Test in all cases: cell-based or functional assay
For assay [1], the target named is T1, human glucagon receptor (human, UniProt P47871 26-477).
The target in assay [2] is T2, human GLP-1 receptor (human, UniProt P43220 24-463).
In assay [3] the target is T3, human glucose-dependent insulinotropic peptide (gastric inhibitory polypeptide) receptor (human, UniProt P48546 22-466).
T3 sequence (looked up): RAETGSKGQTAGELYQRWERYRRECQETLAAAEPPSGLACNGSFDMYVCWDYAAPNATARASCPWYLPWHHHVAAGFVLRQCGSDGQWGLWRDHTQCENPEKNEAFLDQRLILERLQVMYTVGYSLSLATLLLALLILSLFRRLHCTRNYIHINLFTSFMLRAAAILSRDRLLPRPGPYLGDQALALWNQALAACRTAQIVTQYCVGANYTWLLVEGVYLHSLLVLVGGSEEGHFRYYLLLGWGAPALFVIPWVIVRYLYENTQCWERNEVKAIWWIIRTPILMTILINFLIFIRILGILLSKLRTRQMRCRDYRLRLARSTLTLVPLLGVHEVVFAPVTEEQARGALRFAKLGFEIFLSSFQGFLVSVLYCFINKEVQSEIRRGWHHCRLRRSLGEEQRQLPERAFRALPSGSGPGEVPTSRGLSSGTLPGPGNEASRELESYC

Assay [4] concerns the target T1, human glucagon receptor. The source holds these as a separate data set.
Assay [5] concerns the target T2, human GLP-1 receptor. The source holds these as a separate data set.
The target of the next assay is T4, mouse GLP-1 receptor (mouse, UniProt O35659 22-463).
T4 sequence (looked up): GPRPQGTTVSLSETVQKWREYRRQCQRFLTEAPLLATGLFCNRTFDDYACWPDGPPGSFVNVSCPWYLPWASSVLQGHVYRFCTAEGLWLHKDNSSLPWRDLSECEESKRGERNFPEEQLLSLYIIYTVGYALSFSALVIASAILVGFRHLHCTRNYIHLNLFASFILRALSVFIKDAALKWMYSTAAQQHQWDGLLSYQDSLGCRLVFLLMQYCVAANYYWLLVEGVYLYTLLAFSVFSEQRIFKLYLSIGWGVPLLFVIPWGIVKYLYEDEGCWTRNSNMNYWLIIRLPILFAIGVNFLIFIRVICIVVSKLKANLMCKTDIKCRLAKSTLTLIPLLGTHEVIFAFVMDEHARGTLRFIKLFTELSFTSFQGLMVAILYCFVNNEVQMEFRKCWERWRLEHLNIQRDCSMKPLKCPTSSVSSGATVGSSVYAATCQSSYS

Assay [6] has as its target T3, human glucose-dependent insulinotropic …. The source holds these as a separate data set.

Where two headings read alike, the source gives them in different places. Numbered stars: 1 amine (or outer) side, 2 acyl side, 3 side chain; on linkers, the order of the positions; unused ones are H or OH. Side chains are listed from the residue outwards. Ends that are not written are not given here. * marks the point of attachment. γGlu = O=C(O)[C@H](CCC(=O)[*:2])N[*:1]; Palmitoyl = CCCCCCCCCCCCCCCC(=O)*

T1 sequence (P47871 26-477): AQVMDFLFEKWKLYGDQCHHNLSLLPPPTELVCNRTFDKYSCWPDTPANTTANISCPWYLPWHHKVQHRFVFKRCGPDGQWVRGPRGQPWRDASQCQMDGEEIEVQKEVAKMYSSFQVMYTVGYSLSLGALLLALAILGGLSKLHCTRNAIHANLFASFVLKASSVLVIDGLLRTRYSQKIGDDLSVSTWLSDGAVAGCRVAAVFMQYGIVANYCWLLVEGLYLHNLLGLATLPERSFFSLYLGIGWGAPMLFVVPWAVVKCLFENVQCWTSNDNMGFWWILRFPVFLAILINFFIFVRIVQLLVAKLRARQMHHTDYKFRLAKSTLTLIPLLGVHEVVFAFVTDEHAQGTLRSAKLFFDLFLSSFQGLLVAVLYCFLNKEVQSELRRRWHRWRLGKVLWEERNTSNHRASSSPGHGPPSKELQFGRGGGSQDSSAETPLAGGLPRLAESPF

B1: g326 (peptide)
peptide: HSQGTFTSDYSKYLDSRRAQDFVQWLVAGGGGGGK(Palmitoyl)-NH2
modifications: N-terminus assumed
SMILES: CCCCCCCCCCCCCCCC(=O)NCCCC[C@H](NC(=O)CNC(=O)CNC(=O)CNC(=O)CNC(=O)CNC(=O)CNC(=O)[C@H](C)NC(=O)[C@@H](NC(=O)[C@H](CC(C)C)NC(=O)[C@H](Cc1c[nH]c2ccccc12)NC(=O)[C@H](CCC(N)=O)NC(=O)[C@@H](NC(=O)[C@H](Cc1ccccc1)NC(=O)[C@H](CC(=O)O)NC(=O)[C@H](CCC(N)=O)NC(=O)[C@H](C)NC(=O)[C@H](CCCNC(=N)N)NC(=O)[C@H](CCCNC(=N)N)NC(=O)[C@H](CO)NC(=O)[C@H](CC(=O)O)NC(=O)[C@H](CC(C)C)NC(=O)[C@H](Cc1ccc(O)cc1)NC(=O)[C@H](CCCCN)NC(=O)[C@H](CO)NC(=O)[C@H](Cc1ccc(O)cc1)NC(=O)[C@H](CC(=O)O)NC(=O)[C@H](CO)NC(=O)[C@@H](NC(=O)[C@H](Cc1ccccc1)NC(=O)[C@@H](NC(=O)CNC(=O)[C@H](CCC(N)=O)NC(=O)[C@H](CO)NC(=O)[C@@H](N)Cc1c[nH]cn1)[C@@H](C)O)[C@@H](C)O)C(C)C)C(C)C)C(N)=O
As for B1, the “cAMP EC50 (assay 1)” value with human glucagon receptor [1] was 0.00282 nM; with human GLP-1 receptor [2], 0.0247 nM; in assay [3], 12.6 nM.
The like results for HSQGTFTSDYSKYLDSRRAQDFVQWLVAGGSSGGSS-NH2 [g316] were, in that order, 0.0106 nM, 0.0314 nM and 3.65 nM.

B2: g747 (peptide)
peptide: HSQGTFTSDYSKYLDSRRAQDFVQWLEAGGK([γGlu-Palmitoyl])-NH2
modifications: N-terminus assumed
SMILES: CCCCCCCCCCCCCCCC(=O)N[C@@H](CCC(=O)NCCCC[C@H](NC(=O)CNC(=O)CNC(=O)[C@H](C)NC(=O)[C@H](CCC(=O)O)NC(=O)[C@H](CC(C)C)NC(=O)[C@H](Cc1c[nH]c2ccccc12)NC(=O)[C@H](CCC(N)=O)NC(=O)[C@@H](NC(=O)[C@H](Cc1ccccc1)NC(=O)[C@H](CC(=O)O)NC(=O)[C@H](CCC(N)=O)NC(=O)[C@H](C)NC(=O)[C@H](CCCNC(=N)N)NC(=O)[C@H](CCCNC(=N)N)NC(=O)[C@H](CO)NC(=O)[C@H](CC(=O)O)NC(=O)[C@H](CC(C)C)NC(=O)[C@H](Cc1ccc(O)cc1)NC(=O)[C@H](CCCCN)NC(=O)[C@H](CO)NC(=O)[C@H](Cc1ccc(O)cc1)NC(=O)[C@H](CC(=O)O)NC(=O)[C@H](CO)NC(=O)[C@@H](NC(=O)[C@H](Cc1ccccc1)NC(=O)[C@@H](NC(=O)CNC(=O)[C@H](CCC(N)=O)NC(=O)[C@H](CO)NC(=O)[C@@H](N)Cc1c[nH]cn1)[C@@H](C)O)[C@@H](C)O)C(C)C)C(N)=O)C(=O)O
On to B2, for which the “cAMP EC50 (assay 1)” value with human glucagon receptor [1] is 0.0942 nM; in the assay with human GLP-1 receptor [2], 3.16 nM; in assay [3], 1040 nM.
As to HSQGTFTSDYSKK([γGlu-Palmitoyl])LDSERARDFVAWLVAGG-OH [G931], the “cAMP EC50 (assay 1)” value in the assay with human glucagon receptor [4] worked out at 0.0178 nM; with human GLP-1 receptor [5] it was 0.13 nM.
On to HSQGTFTSDYSKYLDSRRAQDFVQWLVAGGKNNRNNIAK-NH2 [g321], for which the “cAMP EC50 (assay 1)” value in the assay with human glucagon receptor [1] was found to be 0.0279 nM; with human GLP-1 receptor [2], 0.0272 nM; in assay [3], 6.41 nM.
For HSQGTFTSDKSKYLEGQAAKEFIAWLEKGR (X10 = K(gE-palm); C-terminal amide) [G812], the “cAMP EC50 (assay 2, 3.2% mouse serum albumin)” value with mouse GLP-1 receptor was 0.13 nM.
HSQGTFTSDKSSYLDSRRARDFVAWLEAGG (X10 = K(gE-palm); C-terminal amide) [G796]: the “cAMP EC50 (assay 1)” value in assay [6] was determined as 14 nM; in the assay with human GLP-1 receptor [2] it was 0.014 nM. Besides, the “cAMP EC50 (assay 2, 3.2% mouse serum albumin)” value in the assay with mouse GLP-1 receptor is 0.13 nM.
For HSQGTFTSDYSKYLDSRRAQDFVQWLVAGGGGGG-NH2 [g315], the “cAMP EC50 (assay 1)” value came out at 0.00504 nM in the assay with human glucagon receptor [1], 0.0273 nM in the assay with human GLP-1 receptor [2] and 19.7 nM in assay [3].

B3: g322 (peptide)
peptide: HSQGTFTSDYSKYLDSRRAQDFVQWLVAGGKNNRNNIAK(Palmitoyl)-NH2
modifications: N-terminus assumed
SMILES: CCCCCCCCCCCCCCCC(=O)NCCCC[C@H](NC(=O)[C@H](C)NC(=O)[C@@H](NC(=O)[C@H](CC(N)=O)NC(=O)[C@H](CC(N)=O)NC(=O)[C@H](CCCNC(=N)N)NC(=O)[C@H](CC(N)=O)NC(=O)[C@H](CC(N)=O)NC(=O)[C@H](CCCCN)NC(=O)CNC(=O)CNC(=O)[C@H](C)NC(=O)[C@@H](NC(=O)[C@H](CC(C)C)NC(=O)[C@H](Cc1c[nH]c2ccccc12)NC(=O)[C@H](CCC(N)=O)NC(=O)[C@@H](NC(=O)[C@H](Cc1ccccc1)NC(=O)[C@H](CC(=O)O)NC(=O)[C@H](CCC(N)=O)NC(=O)[C@H](C)NC(=O)[C@H](CCCNC(=N)N)NC(=O)[C@H](CCCNC(=N)N)NC(=O)[C@H](CO)NC(=O)[C@H](CC(=O)O)NC(=O)[C@H](CC(C)C)NC(=O)[C@H](Cc1ccc(O)cc1)NC(=O)[C@H](CCCCN)NC(=O)[C@H](CO)NC(=O)[C@H](Cc1ccc(O)cc1)NC(=O)[C@H](CC(=O)O)NC(=O)[C@H](CO)NC(=O)[C@@H](NC(=O)[C@H](Cc1ccccc1)NC(=O)[C@@H](NC(=O)CNC(=O)[C@H](CCC(N)=O)NC(=O)[C@H](CO)NC(=O)[C@@H](N)Cc1c[nH]cn1)[C@@H](C)O)[C@@H](C)O)C(C)C)C(C)C)[C@@H](C)CC)C(N)=O
For the molecule B3, the results for the “cAMP EC50 (assay 1)” value (with human glucagon receptor [1]; with human GLP-1 receptor [2]; in assay [3]) were 0.00355 nM, 0.0106 nM and 1.72 nM, respectively.

B4: g327 (peptide)
peptide: HSQGTFTSDYSKYLDSRRAQDFVQWLVAGGGGGGK([γGlu-Palmitoyl])-NH2
modifications: N-terminus assumed
SMILES: CCCCCCCCCCCCCCCC(=O)N[C@@H](CCC(=O)NCCCC[C@H](NC(=O)CNC(=O)CNC(=O)CNC(=O)CNC(=O)CNC(=O)CNC(=O)[C@H](C)NC(=O)[C@@H](NC(=O)[C@H](CC(C)C)NC(=O)[C@H](Cc1c[nH]c2ccccc12)NC(=O)[C@H](CCC(N)=O)NC(=O)[C@@H](NC(=O)[C@H](Cc1ccccc1)NC(=O)[C@H](CC(=O)O)NC(=O)[C@H](CCC(N)=O)NC(=O)[C@H](C)NC(=O)[C@H](CCCNC(=N)N)NC(=O)[C@H](CCCNC(=N)N)NC(=O)[C@H](CO)NC(=O)[C@H](CC(=O)O)NC(=O)[C@H](CC(C)C)NC(=O)[C@H](Cc1ccc(O)cc1)NC(=O)[C@H](CCCCN)NC(=O)[C@H](CO)NC(=O)[C@H](Cc1ccc(O)cc1)NC(=O)[C@H](CC(=O)O)NC(=O)[C@H](CO)NC(=O)[C@@H](NC(=O)[C@H](Cc1ccccc1)NC(=O)[C@@H](NC(=O)CNC(=O)[C@H](CCC(N)=O)NC(=O)[C@H](CO)NC(=O)[C@@H](N)Cc1c[nH]cn1)[C@@H](C)O)[C@@H](C)O)C(C)C)C(C)C)C(N)=O)C(=O)O
Regarding B4, the “cAMP EC50 (assay 1)” value amounted to 0.00232 nM with human glucagon receptor [1], 0.0193 nM with human GLP-1 receptor [2] and 12.8 nM in assay [3].
For HSQGTFTSDYSKYLDSRRAQDFVQWLVAGGPSSGAPPPSK(Palmitoyl)-NH2 [g320] the same measures were 0.0032 nM, 0.00938 nM and 1.01 nM.

The record behind these values is patent US20220098265A1 (MEDIMMUNE LIMITED, priority 2012, published 2022).
